The source of these data is US20150073033A1 (University of Texas, published 2015).

First the molecules themselves.
B1: FLAG-PKM2 K367M (kinase-dead) (enzyme)
chain: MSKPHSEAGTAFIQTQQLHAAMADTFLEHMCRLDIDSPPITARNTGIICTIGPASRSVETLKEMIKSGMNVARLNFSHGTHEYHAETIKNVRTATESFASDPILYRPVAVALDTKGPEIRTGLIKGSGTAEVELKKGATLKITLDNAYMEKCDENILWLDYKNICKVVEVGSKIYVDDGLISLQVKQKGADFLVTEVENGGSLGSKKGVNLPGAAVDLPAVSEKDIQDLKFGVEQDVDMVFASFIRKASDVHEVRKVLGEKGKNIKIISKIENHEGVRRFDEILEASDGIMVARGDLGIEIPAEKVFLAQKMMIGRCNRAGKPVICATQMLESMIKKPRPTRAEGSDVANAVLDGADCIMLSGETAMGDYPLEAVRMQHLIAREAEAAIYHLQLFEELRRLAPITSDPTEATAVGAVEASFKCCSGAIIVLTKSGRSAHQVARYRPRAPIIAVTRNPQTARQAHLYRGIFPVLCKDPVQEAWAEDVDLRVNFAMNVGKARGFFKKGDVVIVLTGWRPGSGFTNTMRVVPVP
notes: Expressed in U87/EGFR cells
B2: FLAG-tagged wild-type PKM2 (enzyme)
chain: not shown
notes: Expressed in U87/EGFR cells; also called FLAG-PKM2; WT FLAG-PKM2
B3: FLAG-PKM2 K433E (enzyme)
chain: not shown
notes: Expressed in U87/EGFR cells; also called PKM2 K433E mutant
B4: endogenous β-catenin (other, human, UniProt P35222 2-781, looked up)
chain: ATQADLMELDMAMEPDRKAAVSHWQQQSYLDSGIHSGATTTAPSLSGKGNPEEEDVDTSQVLYEWEQGFSQSFTQEQVADIDGQYAMTRAQRVRAAMFPETLDEGMQIPSTQFDAAHPTNVQRLAEPSQMLKHAVVNLINYQDDAELATRAIPELTKLLNDEDQVVVNKAAVMVHQLSKKEASRHAIMRSPQMVSAIVRTMQNTNDVETARCTAGTLHNLSHHREGLLAIFKSGGIPALVKMLGSPVDSVLFYAITTLHNLLLHQEGAKMAVRLAGGLQKMVALLNKTNVKFLAITTDCLQILAYGNQESKLIILASGGPQALVNIMRTYTYEKLLWTTSRVLKVLSVCSSNKPAIVEAGGMQALGLHLTDPSQRLVQNCLWTLRNLSDAATKQEGMEGLLGTLVQLLGSDDINVVTCAAGILSNLTCNNYKNKMMVCQVGGIEALVRTVLRAGDREDITEPAICALRHLTSRHQEAEMAQNAVRLHYGLPVVVKLLHPPSHWPLIKATVGLIRNLALCPANHAPLREQGAIPRLVQLLVRAHQDTQRRTSMGGTQQQFVEGVRMEEIVEGCTGALHILARDVHNRIVIRGLNTIPLFVQLLYSPIENIQRVAAGVLCELAQDKEAAEAIEAEGATAPLTELLHSRNEGVATYAAAVLFRMSEDKPQDYKKRLSVELTSSLFRTEPMAWNETADLGLDIGAQGEPLGYRQDDPSYRSFHSGGYGQDALGMDPMMEHEMGGHHPGADYPVDGLPDLGHAQDLMDGLPPGDSNQLAWFDTDL
notes: In EGF-treated cells it is tyrosine-phosphorylated (Y333) in the nucleus
B5: FLAG-tagged WT β-catenin (other, UniProt P35222 1-781, looked up)
chain: MATQADLMELDMAMEPDRKAAVSHWQQQSYLDSGIHSGATTTAPSLSGKGNPEEEDVDTSQVLYEWEQGFSQSFTQEQVADIDGQYAMTRAQRVRAAMFPETLDEGMQIPSTQFDAAHPTNVQRLAEPSQMLKHAVVNLINYQDDAELATRAIPELTKLLNDEDQVVVNKAAVMVHQLSKKEASRHAIMRSPQMVSAIVRTMQNTNDVETARCTAGTLHNLSHHREGLLAIFKSGGIPALVKMLGSPVDSVLFYAITTLHNLLLHQEGAKMAVRLAGGLQKMVALLNKTNVKFLAITTDCLQILAYGNQESKLIILASGGPQALVNIMRTYTYEKLLWTTSRVLKVLSVCSSNKPAIVEAGGMQALGLHLTDPSQRLVQNCLWTLRNLSDAATKQEGMEGLLGTLVQLLGSDDINVVTCAAGILSNLTCNNYKNKMMVCQVGGIEALVRTVLRAGDREDITEPAICALRHLTSRHQEAEMAQNAVRLHYGLPVVVKLLHPPSHWPLIKATVGLIRNLALCPANHAPLREQGAIPRLVQLLVRAHQDTQRRTSMGGTQQQFVEGVRMEEIVEGCTGALHILARDVHNRIVIRGLNTIPLFVQLLYSPIENIQRVAAGVLCELAQDKEAAEAIEAEGATAPLTELLHSRNEGVATYAAAVLFRMSEDKPQDYKKRLSVELTSSLFRTEPMAWNETADLGLDIGAQGEPLGYRQDDPSYRSFHSGGYGQDALGMDPMMEHEMGGHHPGADYPVDGLPDLGHAQDLMDGLPPGDSNQLAWFDTDL
notes: Transiently expressed in U87/EGFR or A431 cells; also called FLAG-β-catenin; not shown: FLAG tag
B6: FLAG-β-catenin Y333F (other, UniProt P35222 1-781, looked up)
chain: B5 chain with Y333F
notes: Transiently expressed in U87/EGFR or A431 cells; not shown: FLAG tag
B7: E-cadherin (endogenous, A431 cells) (other, UniProt P12830 155-882, looked up)
chain: DWVIPPISCPENEKGPFPKNLVQIKSNKDKEGKVFYSITGQGADTPPVGVFIIERETGWLKVTEPLDRERIATYTLFSHAVSSNGNAVEDPMEILITVTDQNDNKPEFTQEVFKGSVMEGALPGTSVMEVTATDADDDVNTYNAAIAYTILSQDPELPDKNMFTINRNTGVISVVTTGLDRESFPTYTLVVQAADLQGEGLSTTATAVITVTDTNDNPPIFNPTTYKGQVPENEANVVITTLKVTDADAPNTPAWEAVYTILNDDGGQFVVTTNPVNNDGILKTAKGLDFEAKQQYILHVAVTNVVPFEVSLTTSTATVTVDVLDVNEAPIFVPPEKRVEVSEDFGVGQEITSYTAQEPDTFMEQKITYRIWRDTANWLEINPDTGAISTRAELDREDFEHVKNSTYTALIIATDNGSPVATGTGTLLLILSDVNDNAPIPEPRTIFFCERNPKPQVINIIDADLPPNTSPFTAELTHGASANWTIQYNDPTQESIILKPKMALEVGDYKINLKLMDNQNKDQVTTLEVSVCDCEGAAGVCRKAQPVEAGLQIPAILGILGGILALLILILLLLLFLRRRAVVKEPLLPPEDDTRDNVYYYDEEGGGEEDQDFDLSQLHRGLDARPEVTRNDVAPTLMSVPRYLPRPANPDEIGNFIDENLKAADTDPTAPPYDSLLVFDYEGSGSEAASLSSLNSSESDKDQDYDYLNEWGNRFKKLADMYGGGEDD
B8: FLAG-PKM2 R399/400A (enzyme)
chain: not shown
notes: Expressed in U87/EGFR cells

Changes are numbered by the printed parent chain. Names may count otherwise.

The target in the test “endogenous β-catenin” is B4. Briefly: co-IP, EGF-treated U87/EGFR cells.
A further test has as its target endogenous c-Src (human, UniProt P12931 2-536). Briefly: co-IP from nuclear fractions of U87/EGFR cells.
For test [1], the target named is APC (endogenous, A431 cells) (UniProt P25054 2-2843, limits assumed). Briefly: co-IP, A431 cells.
Test [2] deals with AXIN2 (endogenous, A431 cells) (UniProt Q9Y2T1 1-843). Nature of the test: co-IP, A431 cells.
The target in the test “FLAG-β-catenin Y333F” is B6. Briefly: co-IP, A431 cells.
The test “FLAG-tagged WT β-catenin” addresses B5. Briefly: co-IP, A431 cells.
In the next test the target is T1, purified GST-importin α5 (human, UniProt P52294 1-538, limits assumed).
T1 construct: Expressed in bacteria and purified; not shown: GST
Briefly: GST pull-down from lysates of EGF-treated U87/EGFR cells.

APC (endogenous, A431 cells), sequence (P25054 2-2843 limits assumed): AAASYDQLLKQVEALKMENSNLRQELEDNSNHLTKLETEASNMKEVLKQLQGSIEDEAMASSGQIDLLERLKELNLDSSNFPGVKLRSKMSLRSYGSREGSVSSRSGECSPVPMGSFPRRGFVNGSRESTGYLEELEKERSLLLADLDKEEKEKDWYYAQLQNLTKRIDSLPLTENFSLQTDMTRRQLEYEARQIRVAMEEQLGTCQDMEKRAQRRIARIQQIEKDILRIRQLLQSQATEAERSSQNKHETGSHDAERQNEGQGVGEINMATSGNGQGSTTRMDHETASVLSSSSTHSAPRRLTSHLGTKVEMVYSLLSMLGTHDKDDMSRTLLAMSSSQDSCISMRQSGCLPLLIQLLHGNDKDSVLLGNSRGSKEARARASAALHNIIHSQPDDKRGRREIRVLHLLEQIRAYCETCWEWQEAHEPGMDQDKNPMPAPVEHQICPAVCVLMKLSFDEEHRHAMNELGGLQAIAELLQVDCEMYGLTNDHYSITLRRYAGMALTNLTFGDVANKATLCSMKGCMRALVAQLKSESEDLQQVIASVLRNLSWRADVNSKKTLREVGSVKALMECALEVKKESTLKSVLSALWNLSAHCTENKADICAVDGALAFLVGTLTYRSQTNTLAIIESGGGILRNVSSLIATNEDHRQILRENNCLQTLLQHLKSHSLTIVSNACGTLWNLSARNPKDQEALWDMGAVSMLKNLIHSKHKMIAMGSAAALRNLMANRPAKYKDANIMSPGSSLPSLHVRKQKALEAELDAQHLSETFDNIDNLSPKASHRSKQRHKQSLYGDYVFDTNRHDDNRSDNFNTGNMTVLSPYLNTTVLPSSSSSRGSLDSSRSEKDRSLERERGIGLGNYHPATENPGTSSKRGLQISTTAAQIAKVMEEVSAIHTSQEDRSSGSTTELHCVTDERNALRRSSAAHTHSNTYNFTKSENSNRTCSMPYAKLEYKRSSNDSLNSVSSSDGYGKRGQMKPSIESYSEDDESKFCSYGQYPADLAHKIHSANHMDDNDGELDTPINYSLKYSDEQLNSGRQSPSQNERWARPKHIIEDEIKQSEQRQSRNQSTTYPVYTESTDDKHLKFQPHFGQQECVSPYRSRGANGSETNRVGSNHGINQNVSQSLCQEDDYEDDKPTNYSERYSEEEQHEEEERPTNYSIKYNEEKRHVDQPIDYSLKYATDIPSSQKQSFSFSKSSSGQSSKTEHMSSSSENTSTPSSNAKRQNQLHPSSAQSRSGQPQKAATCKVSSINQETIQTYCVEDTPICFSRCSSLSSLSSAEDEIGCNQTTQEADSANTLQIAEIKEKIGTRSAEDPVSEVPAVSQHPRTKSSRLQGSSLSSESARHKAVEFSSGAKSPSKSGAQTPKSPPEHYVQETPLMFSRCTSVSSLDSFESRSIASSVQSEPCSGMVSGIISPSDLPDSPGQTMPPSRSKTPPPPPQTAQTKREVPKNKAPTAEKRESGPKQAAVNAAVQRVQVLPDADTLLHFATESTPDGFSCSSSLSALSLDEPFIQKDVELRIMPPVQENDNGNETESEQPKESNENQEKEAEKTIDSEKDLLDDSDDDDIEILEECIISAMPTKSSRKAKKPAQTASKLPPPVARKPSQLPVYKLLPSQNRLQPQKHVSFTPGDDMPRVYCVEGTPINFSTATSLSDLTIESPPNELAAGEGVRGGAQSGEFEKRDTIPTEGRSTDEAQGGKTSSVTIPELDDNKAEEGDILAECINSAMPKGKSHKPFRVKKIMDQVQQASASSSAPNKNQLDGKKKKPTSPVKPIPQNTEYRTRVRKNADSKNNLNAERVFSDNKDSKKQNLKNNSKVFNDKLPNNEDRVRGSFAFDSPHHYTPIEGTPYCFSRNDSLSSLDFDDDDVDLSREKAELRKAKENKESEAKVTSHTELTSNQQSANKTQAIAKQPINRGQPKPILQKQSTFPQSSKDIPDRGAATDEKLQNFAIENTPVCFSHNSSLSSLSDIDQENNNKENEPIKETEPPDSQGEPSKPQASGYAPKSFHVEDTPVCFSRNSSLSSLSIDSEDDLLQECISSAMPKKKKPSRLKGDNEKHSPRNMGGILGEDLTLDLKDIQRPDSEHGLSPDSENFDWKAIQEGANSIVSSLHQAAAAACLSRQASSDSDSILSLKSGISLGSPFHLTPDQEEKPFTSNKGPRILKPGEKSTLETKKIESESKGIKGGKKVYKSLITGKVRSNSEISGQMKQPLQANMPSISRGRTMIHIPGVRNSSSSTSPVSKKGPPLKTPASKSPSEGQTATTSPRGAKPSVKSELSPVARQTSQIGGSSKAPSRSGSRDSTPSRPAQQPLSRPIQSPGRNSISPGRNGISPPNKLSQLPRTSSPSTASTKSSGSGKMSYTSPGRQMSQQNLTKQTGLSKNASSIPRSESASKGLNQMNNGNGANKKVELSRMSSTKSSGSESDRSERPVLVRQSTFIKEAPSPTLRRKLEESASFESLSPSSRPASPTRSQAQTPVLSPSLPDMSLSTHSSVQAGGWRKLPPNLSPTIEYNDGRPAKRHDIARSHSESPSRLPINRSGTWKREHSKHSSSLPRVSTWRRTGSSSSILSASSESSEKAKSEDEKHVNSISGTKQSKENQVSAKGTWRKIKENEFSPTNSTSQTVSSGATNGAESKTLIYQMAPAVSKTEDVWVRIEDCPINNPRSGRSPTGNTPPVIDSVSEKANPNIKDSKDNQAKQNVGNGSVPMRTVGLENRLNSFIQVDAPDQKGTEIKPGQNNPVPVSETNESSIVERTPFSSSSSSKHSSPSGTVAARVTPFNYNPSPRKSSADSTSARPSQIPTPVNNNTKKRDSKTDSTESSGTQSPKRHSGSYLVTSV
AXIN2 (endogenous, A431 cells), sequence (Q9Y2T1 whole entry): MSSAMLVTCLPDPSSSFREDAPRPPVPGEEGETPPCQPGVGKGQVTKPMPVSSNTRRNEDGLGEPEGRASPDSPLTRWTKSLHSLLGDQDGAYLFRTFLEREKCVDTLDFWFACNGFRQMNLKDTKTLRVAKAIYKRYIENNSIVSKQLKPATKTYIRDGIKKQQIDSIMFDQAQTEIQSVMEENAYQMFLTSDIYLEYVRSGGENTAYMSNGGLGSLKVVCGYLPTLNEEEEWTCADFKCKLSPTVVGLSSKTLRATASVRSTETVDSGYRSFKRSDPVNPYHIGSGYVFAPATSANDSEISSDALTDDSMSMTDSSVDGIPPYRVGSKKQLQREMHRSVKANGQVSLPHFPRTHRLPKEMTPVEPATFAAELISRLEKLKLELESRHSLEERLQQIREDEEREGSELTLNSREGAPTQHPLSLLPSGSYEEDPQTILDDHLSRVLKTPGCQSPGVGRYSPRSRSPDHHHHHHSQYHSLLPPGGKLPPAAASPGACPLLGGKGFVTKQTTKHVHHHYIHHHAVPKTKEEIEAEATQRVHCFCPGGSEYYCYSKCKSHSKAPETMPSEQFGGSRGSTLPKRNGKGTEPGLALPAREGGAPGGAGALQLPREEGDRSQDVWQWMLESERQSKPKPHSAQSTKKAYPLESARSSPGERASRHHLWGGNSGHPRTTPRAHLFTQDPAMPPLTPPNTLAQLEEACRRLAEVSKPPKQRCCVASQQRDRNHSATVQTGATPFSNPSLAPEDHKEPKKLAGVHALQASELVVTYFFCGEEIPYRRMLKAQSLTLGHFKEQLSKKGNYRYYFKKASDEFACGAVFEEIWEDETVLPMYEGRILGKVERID
T1 sequence (P52294 whole entry): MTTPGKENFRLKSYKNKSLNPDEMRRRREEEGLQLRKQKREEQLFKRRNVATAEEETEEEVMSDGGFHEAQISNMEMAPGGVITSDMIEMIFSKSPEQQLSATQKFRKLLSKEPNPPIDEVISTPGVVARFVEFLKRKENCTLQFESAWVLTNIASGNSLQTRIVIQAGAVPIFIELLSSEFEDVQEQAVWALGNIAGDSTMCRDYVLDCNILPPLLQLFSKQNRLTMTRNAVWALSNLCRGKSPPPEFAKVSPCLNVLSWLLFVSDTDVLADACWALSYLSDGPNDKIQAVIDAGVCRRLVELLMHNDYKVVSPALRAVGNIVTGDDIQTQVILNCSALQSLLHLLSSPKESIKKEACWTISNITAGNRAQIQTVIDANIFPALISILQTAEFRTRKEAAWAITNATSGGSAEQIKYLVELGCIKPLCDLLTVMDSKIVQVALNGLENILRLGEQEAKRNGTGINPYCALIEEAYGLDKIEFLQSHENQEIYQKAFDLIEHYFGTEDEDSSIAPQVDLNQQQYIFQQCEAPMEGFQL

As to B1, the binding result with endogenous β-catenin is “binds”.
The same measure, in the same setting: the value for B2 was “binds”.
For the molecule B3, the binding result in the test with endogenous β-catenin is listed as “no binding”.
With B4, the binding result with endogenous c-Src is recorded as “binds”.
Turning to B5, the binding result in test [1] and in test [2] was “binds” in each case.
As for B6, the binding result in test [1] and in test [2] was “binds” each time.
As to B7, the binding result with FLAG-β-catenin Y333F and with FLAG-tagged WT β-catenin was “binds” throughout.
As to B8, the binding result in the test with purified GST-importin α5 is reported as “no binding”.
